B1: BAK1183H4 antibody (antibody, V domains shown)
VH: QVQLVQSGAEVKKPGASVKVSCKASGYTFTNYGLSWVRQAPGQGLEWMGWINYDGGNTQYGQEFQGRVTMTTDTSTSTAYMELRSLRSDDTAVYYCARDSSSSWARWFFDLWGRGTLVTVSS
VL: SYVLTQPPSVSVAPGKTARIPCGGNIIGSKLVHWYQQKPGQAPVLVIYDDGDRPSGIPERFSGSNSGNTATLTISRVEAGDEADYYCQVWDTGSDPVVFGGGTKLTVL
notes: also called 1183H04; BAK1183H04
B2: 13NG0074 (antibody, V domains shown)
VH: B1 VH
VL: B1 VL with I26L, S29A, K30R, V46I, I47M, Y48F, G51Q, D95L
notes: IgG in the KinExA assay
B3: 13NG0073 (antibody, V domains shown)
VH: B1 VH
VL: B1 VL with I26L, S29A, K30R, V46I, Y48M, G51I, D95R
notes: IgG in the KinExA assay; also called IL13NG0073
B4: 13NG0075 (scFv, V domains shown)
VH: B1 VH
VL: B1 VL with I26M, I27V, S29A, K30R, Y48M, G51I, D95R
notes: purified scFv from the mini-recombination library; member of group m20; also called ZZ0SEE-A06; copies: 1 + 1
B5: 13NG0076 (scFv, V domains shown)
VH: B1 VH
VL: B1 VL with I26M, I27V, S29A, K30R, Y48M, G51I, D95R
notes: purified scFv from the mini-recombination library; member of group m20; also called ZZ0SEA-F10; copies: 1 + 1
B6: 13NG0072 (scFv, V domains shown)
VH: B1 VH
VL: B1 VL with I26M, I27V, S29A, K30R, V46I, I47V, G51M, A79T, D95R
notes: purified scFv from the mini-recombination library; member of group m20; also called ZZ0SEA-H11; copies: 1 + 1
B7: 13NG0067 (scFv, V domains shown)
VH: B1 VH with S85G
VL: B1 VL with I26M, I27V, S29A, K30R, V46I, Y48M, G51I, D95S
notes: purified scFv from the mini-recombination library; member of group m20; also called ZZ0SEF-H04; copies: 1 + 1
B8: 13NG0071 (scFv, V domains shown)
VH: B1 VH
VL: B1 VL with I26M, I27V, S29A, K30R, V46I, I47V, Y48F, G51E, D95L
notes: purified scFv from the mini-recombination library; member of group m20; also called ZZ0SEE-A09; copies: 1 + 1
B9: 13NG0070 (scFv, V domains shown)
VH: B1 VH
VL: B1 VL with I26M, I27V, S29A, K30R, V46I, I47V, Y48F, G51E, D95R
notes: purified scFv from the mini-recombination library; member of group m20; also called ZZ0SED-B06; copies: 1 + 1
B10: 13NG0069 (scFv, V domains shown)
VH: B1 VH
VL: B1 VL with I26M, I27V, S29A, K30R, V46I, Y48M, G51I, D95R
notes: purified scFv from the mini-recombination library; member of group m20; also called ZZ0SEA-A03; copies: 1 + 1
B11: 13NG0068 (scFv, V domains shown)
VH: B1 VH with M48V, S77G
VL: B1 VL with S9L, I26L, S29A, K30R, V46I, Y48M, G51I
notes: purified scFv from the mini-recombination library; member of group m20; also called ZZ0SEB-B02; copies: 1 + 1
B12: 13NG0077 (scFv, V domains shown)
VH: B1 VH
VL: B1 VL with I26M, I27V, S29A, K30Y, V46I, I47V, G51M, D95S
notes: purified scFv from the mini-recombination library; member of group m20; also called ZZ0SED-A07; copies: 1 + 1
B13: 1183H4_VH_VL_nonGL IgG1-YTE (antibody, V domains shown)
VH: B1 VH
VL: B1 VL
notes: Non-germlined parent as IgG1 with the YTE mutations (M252Y/S254T/T256E, EU); also called Parent IgG1-YTE; parent clone
B14: 13NG0087 (scFv, V domains shown)
VH: B1 VH
VL: B1 VL with I26M, I27V, G28A, S29A, K30R, V46I, I47M, Y48F, G51Q, D95L
notes: purified scFv from the mini-recombination library; member of group m20; also called ZZ0SEF-E05; copies: 1 + 1
B15: 13NG0088 (scFv, V domains shown)
VH: B1 VH
VL: B1 VL with I26L, S29A, K30R, Y48M, G51I, D95R
notes: purified scFv from the mini-recombination library; member of group m20; also called ZZ0SEC-C01; copies: 1 + 1
B16: 13NG0086 (scFv, V domains shown)
VH: B1 VH
VL: B1 VL with I26M, I27V, S29A, K30R, V46I, I47V, G51M, D95R
notes: purified scFv from the mini-recombination library; member of group m20; also called ZZ0SEB-F04; copies: 1 + 1
B17: 13NG0078 (scFv, V domains shown)
VH: B1 VH with M48V
VL: B1 VL with I26L, G28A, S29A, K30R, V46I, I47M, Y48F, G51Q, A79T, D95L
notes: purified scFv from the mini-recombination library; member of group m20; also called ZZ0SFL-G06; copies: 1 + 1
B18: 13NG0085 (scFv, V domains shown)
VH: B1 VH
VL: B1 VL with I26M, I27V, S29A, K30R, V46I, Y48M, G51I, D95R
notes: purified scFv from the mini-recombination library; member of group m20; also called ZZ0SEF-G10; copies: 1 + 1
B19: 13NG0082 (scFv, V domains shown)
VH: B1 VH
VL: B1 VL with I26M, I27V, S29A, K30R, V46I, I47V, Y48F, G51E, D95R
notes: purified scFv from the mini-recombination library; member of group m20; also called ZZ0SEF-E03; copies: 1 + 1
B20: 13NG0080 (scFv, V domains shown)
VH: B1 VH with V2A
VL: B1 VL with I26L, G28A, S29A, K30R, V46I, I47V, Y48F, G51E, A79T, D95S
notes: purified scFv from the mini-recombination library; member of group m20; also called ZZ0SEA-D07; copies: 1 + 1
B21: 13NG0081 (scFv, V domains shown)
VH: B1 VH with M48V
VL: B1 VL with I26L, S29A, K30R, V46I, I47V, G51M, D95R
notes: purified scFv from the mini-recombination library; member of group m20; the text gives two different numbers for the VH; also called ZZ0SE9-C11; copies: 1 + 1
B22: 13NG0079 (scFv, V domains shown)
VH: B1 VH
VL: B1 VL with I26L, S29A, K30R, V46I, I47V, G51M, D95L
notes: purified scFv from the mini-recombination library; member of group m20; also called ZZ0SEA-B02; copies: 1 + 1
B23: 13NG0084 (scFv, V domains shown)
VH: B1 VH
VL: B1 VL with I26L, G28A, S29A, K30R, V46I, I47V, Y48F, G51E, D95S
notes: purified scFv from the mini-recombination library; member of group m20; also called ZZ0SED-F07; copies: 1 + 1
B24: 13NG0083 (antibody, V domains shown)
VH: B1 VH
VL: B1 VL with I26M, I27V, S29A, K30R, V46I, I47V, Y48F, G51E, D95S
notes: also called unmodified 13NG0083; WT

Our source for the Kd, Fld improvement and IC50 values is patent publication US20160272706A1 (AstraZeneca / MedImmune, published 2016).

Numbering of substitutions follows the chain as printed. Numbers in names are those of the source.

The target in one experiment is T1, Human IL-13 (human, UniProt P35225 35-146).
T1 construct: also called human interleukin 13 (Peprotech); the antigen
Description: BIAcore.
As for B1, the affinity, expressed as Kd, was 0.081 nM.

A further experiment concerns the target T1, Human IL-13. Kind of experiment: KinExA at 37° C., IgG fixed at 100 or 4 pM, human IL-13 titrated. Background: Kinetic exclusion samples the free partner from a solution-phase mixture.
Turning to B2, binding was characterised by a dissociation constant (Kd) of 4 pM.

In the case of B3, the dissociation constant (Kd) – broadly, a measure of binding affinity in units of concentration – worked out at 4.6 pM.

In the next experiment the target is T1, Human IL-13. Kind of experiment: IC50 of the parent scFv divided by IC50 of the clone, biochemical receptor-ligand inhibition assay, purified scFv.
B1: the Fld improvement came out at 1 fold.

As to B2, the Fld improvement was found to be 3.76 fold.

In the case of B4, the Fld improvement amounted to 4.21 fold.

For B5, the Fld improvement was 5.09 fold.

For B6, the Fld improvement is 3.16 fold.

B7: the Fld improvement turned out to be 6.12 fold.

B8: the Fld improvement amounted to 3.8 fold.

For B9, the Fld improvement was 4.28 fold.

As to B10, the Fld improvement turned out to be 5.18 fold.

B11: the Fld improvement was 7.5 fold.

On to B3, for which the Fld improvement is 5.02 fold.

In the case of B12, the Fld improvement worked out at 3.93 fold.

A further experiment addresses T1, Human IL-13. Description: biochemical receptor-ligand inhibition assay, purified scFv titrated; the IL-13 receptor used is not named in Example 1.
For B1, the IC50 – broadly, the concentration that gives 50% inhibition – was 40.6 nM.

B2 had an IC50 of 10.8 nM.

On to B4, for which the IC50 amounted to 9.65 nM.

As for B5, the IC50 was 7.98 nM.

B6: the IC50 turned out to be 12.8 nM.

B7 had an IC50 of 6.63 nM.

Take B8: half-maximal inhibition (IC50) was put at 10.7 nM.

Molecule B9 came in with an IC50 of 9.49 nM.

B10 had an IC50 of 7.85 nM.

As for B11, the IC50 stood at 5.42 nM.

Take B3: the IC50 came out at 8.09 nM.

With B12, half-maximal inhibition (IC50) was put at 10.3 nM.

The next experiment concerns the target FLAG-tagged human IL-13 (R130 variant) (human, UniProt P35225 35-146). Kind of experiment: HTRF receptor-ligand competition; FLAG-tagged human IL-13 (312.5 pM) against DyLight650-labelled human IL-13Rα2 (10 nM); geometric mean.
B13: the IC50 turned out to be 1.34 nM.

For the next experiment, the target named is T1, Human IL-13. Kind of experiment: IC50 of the parent scFv divided by IC50 of the clone, biochemical receptor-ligand inhibition assay, purified scFv (second panel).
Turning to B1, the Fld improvement worked out at 1 fold.

Consider B14, for which the Fld improvement amounted to 6.5 fold.

For B15, the Fld improvement amounted to 7 fold.

For B16, the Fld improvement came out at 3.2 fold.

Take B17: the Fld improvement was found to be 6.4 fold.

With B18, the Fld improvement amounted to 4.2 fold.

Regarding B19, the Fld improvement is 4.2 fold.

As to B20, the Fld improvement is 4.1 fold.

Take B21: the Fld improvement was 5.2 fold.

On to B22, for which the Fld improvement was found to be 5.8 fold.

In the case of B23, the Fld improvement was 4.3 fold.

Consider B24, for which the Fld improvement was found to be 5.2 fold.

Another experiment has as its target T1, Human IL-13. Kind of experiment: biochemical receptor-ligand inhibition assay, purified scFv titrated (second panel); the IL-13 receptor used is not named in Example 1.
The molecule B1 registered a 50% inhibitory concentration (IC50) of 46 nM.

With B14, half-maximal inhibition (IC50) was put at 7.11 nM.

B15 came in with an IC50 of 6.53 nM.

Consider B16, for which the IC50 came out at 14.2 nM.

Molecule B17 had an IC50 of 7.22 nM.

As to B18, half-maximal inhibition (IC50) required 10.8 nM.

Take B19: inhibition was half-maximal at 11 nM (IC50).

In turn, B20 gave an IC50 of 11.2 nM.

Regarding B21, the IC50 amounted to 8.9 nM.

As for B22, the IC50 amounted to 7.86 nM.

In turn, B23 yielded an IC50 of 10.7 nM.

Molecule B24 came in with an IC50 of 8.88 nM.
